Blank lines part the entries; values can stand above or below the binder they belong to.
Experiments:
[1] = target: T1, human PD-1 expressed on cells (human, UniProt Q15116 25-288); experiment: competition binding assay; blocks PD-L1 binding to human PD-1-expressing 300.19 cells
T1 construct: whole, on cells; those cells are treated here as the same human PD-1; also called Programmed Death 1; human PD-1 transfected Jurkat cells

[2] = target: T2, human PD-1-Ig fusion protein (human, UniProt Q15116 25-167); experiment: ELISA on human PD-1-Ig fusion protein
T2 construct: not shown: Ig part of the fusion protein
T2 sequence (Q15116 25-167): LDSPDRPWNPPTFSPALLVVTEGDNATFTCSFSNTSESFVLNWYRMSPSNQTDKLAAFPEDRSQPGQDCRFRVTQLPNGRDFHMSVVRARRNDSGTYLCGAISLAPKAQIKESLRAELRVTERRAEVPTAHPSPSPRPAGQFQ

[3] = target: T3, cynomolgus PD-1 expressed on cells (cynomolgus); experiment: FACS on cynomolgus T cells (e.g., CD3/CD28 activated CD4 T cells)
T3 construct: whole, on cells; also called cells transfected with cynomolgus PD-1

[4] = target: T3, cynomolgus PD-1 expressed on cells; experiment: FACS on cells transfected with cynomolgus PD-1
[5] = target: T1, human PD-1 expressed on cells; experiment: competition binding assay; blocks PD-L2 binding to human PD-1-expressing 300.19 cells
[6] = target: T1, human PD-1 expressed on cells; experiment: FACS on human PD-1 transfected Jurkat cells
[7] = target: T1, human PD-1 expressed on cells; experiment: cell-based or functional assay
[8] = target: T1, human PD-1 expressed on cells; experiment: FACS blocking of PD-L1-Ig binding to PD-1-expressing 300.19 cells

T1 sequence (Q15116 25-288): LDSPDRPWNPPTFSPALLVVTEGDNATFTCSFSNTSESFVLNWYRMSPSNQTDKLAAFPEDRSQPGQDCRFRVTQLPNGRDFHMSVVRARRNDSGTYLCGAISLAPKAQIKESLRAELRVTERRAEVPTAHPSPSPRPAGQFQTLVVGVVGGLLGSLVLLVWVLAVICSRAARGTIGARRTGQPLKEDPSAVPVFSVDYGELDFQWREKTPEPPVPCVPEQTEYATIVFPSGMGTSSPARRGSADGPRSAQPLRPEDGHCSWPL

- IC50 [1]: 0.3 nM
- Kd [2]: 0.04 nM
- Kd [3]: 0.4 nM
- Kd [4]: 0.6 nM
- IC50 [5]: 0.9 nM
- Kd [6]: 0.06 nM
B1: murine anti-PD-1 monoclonal antibody BAP049 (antibody, V domains shown)
VH: QVQLQQSGSELVRPGASVKLSCKASGYTFTTYWMHWVRQRPGQGLEWIGNIYPGTGGSNFDEKFKNRTSLTVDTSSTTAYMHLASLTSEDSAVYYCTRWTTGTGAYWGQGTLVTVSA
VL: DIVMTQSPSSLTVTAGEKVTMSCKSSQSLLDSGNQKNFLTWYQQKPGQPPKLLIFWASTRESGVPDRFTGSGSVTDFTLTISSVQAEDLAVYYCQNDYSYPCTFGGGTKLEIK
notes: the murine constant regions are not; also called Mu mAb; murine mAb BAP049

- ex vivo EC50 for PD-1 blockade [7]: 0.42 mg/L
B2: humanized anti-PD-1 antibody BAP049-Clone-E (antibody, human IgG4 S228P, kappa)
heavy: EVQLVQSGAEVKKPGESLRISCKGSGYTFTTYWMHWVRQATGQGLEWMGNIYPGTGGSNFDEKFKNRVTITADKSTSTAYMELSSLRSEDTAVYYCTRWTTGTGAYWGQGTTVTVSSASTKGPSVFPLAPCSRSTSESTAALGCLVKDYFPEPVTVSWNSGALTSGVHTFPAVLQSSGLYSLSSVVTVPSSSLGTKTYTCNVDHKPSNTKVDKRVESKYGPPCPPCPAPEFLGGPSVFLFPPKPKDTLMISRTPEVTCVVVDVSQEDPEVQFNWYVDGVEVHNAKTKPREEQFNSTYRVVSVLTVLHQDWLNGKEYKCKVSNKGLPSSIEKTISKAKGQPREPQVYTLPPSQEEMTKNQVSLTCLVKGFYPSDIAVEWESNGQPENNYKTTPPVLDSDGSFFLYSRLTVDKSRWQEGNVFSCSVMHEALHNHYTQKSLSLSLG
light: EIVLTQSPATLSLSPGERATLSCKSSQSLLDSGNQKNFLTWYQQKPGQAPRLLIYWASTRESGVPSRFSGSGSGTDFTFTISSLEAEDAATYYCQNDYSYPYTFGQGTKVEIKRTVAAPSVFIFPPSDEQLKSGTASVVCLLNNFYPREAKVQWKVDNALQSGNSQESVTEQDSKDSTYSLSSTLTLSKADYEKHKVYACEVTHQGLSSPVTKSFNRGEC

- IC50 (read off the curve) [8]: ~1 mg/L
B3: humanized anti-PD-1 antibody BAP049-hum09 (antibody, human IgG4 S228P, kappa)
heavy: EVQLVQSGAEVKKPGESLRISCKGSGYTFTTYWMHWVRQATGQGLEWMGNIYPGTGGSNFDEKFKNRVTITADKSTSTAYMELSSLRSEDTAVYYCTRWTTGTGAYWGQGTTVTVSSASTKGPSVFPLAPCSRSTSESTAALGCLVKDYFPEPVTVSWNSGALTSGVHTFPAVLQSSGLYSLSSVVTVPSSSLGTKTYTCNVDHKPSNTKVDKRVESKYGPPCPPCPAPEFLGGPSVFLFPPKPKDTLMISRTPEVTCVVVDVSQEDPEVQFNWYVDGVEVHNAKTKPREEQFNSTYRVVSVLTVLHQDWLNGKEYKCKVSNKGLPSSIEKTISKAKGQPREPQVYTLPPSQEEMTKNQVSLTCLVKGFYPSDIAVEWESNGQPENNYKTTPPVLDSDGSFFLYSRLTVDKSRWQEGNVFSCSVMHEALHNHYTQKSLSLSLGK
light: EIVLTQSPDFQSVTPKEKVTITCKSSQSLLDSGNQKNFLTWYQQKPGQAPRLLIYWASTRESGVPSRFSGSGSGTDFTFTISSLEAEDAATYYCQNDYSYPYTFGQGTKVEIKRTVAAPSVFIFPPSDEQLKSGTASVVCLLNNFYPREAKVQWKVDNALQSGNSQESVTEQDSKDSTYSLSSTLTLSKADYEKHKVYACEVTHQGLSSPVTKSFNRGEC
notes: Whole IgG4(S228P)/kappa; tested as concentrated supernatant of transiently transfected CHO cells; also called Clone No. 09

Reference: patent US20180222982A1 (Novartis, published 2018)
